Measurements as given in article PMC9851723.

Target: SARS-CoV-2 nucleocapsid protein (Np) (SARS-CoV-2, UniProt P0DTC9 1-419)
Test: SPR

B1: A48t-T20-A61t (DNA-BC) (ssDNA)
DNA: TTCCTTAGGGGCACCGCTACATTTTTTTTTTTTTTTTTTTTTACCTTTACAGATCGGATTCTGTGGGGCG
B1 was tested, and the Kd was 1.04 nM.
